Measured values reported in US8008547B2, “Glyphosate-N-acetyltransferase (GAT) genes” (E.I. duPont de Nemours, priority 2000, dated 2011).
Where a chain is given by its changes, count along the chain named.

B1: SEQ ID NO: 445: GAT polypeptide (protein)
chain: MLEVKPINAEDTYELRHRILRPNQPIEACMYESDLLRGAFHLGGYYRGKLISIASFHQAEHSELQGQKQYQLRGMATLEGYREQKAGSSLIKHAEEILRKRGADLLWCNARTSASGYYKKLGFSEQGEIFETPPVGPHILMYKRIT
modifications: 0_5D3
notes: GAT polypeptide
B2: SEQ ID NO: 457: GAT polypeptide (protein)
chain: B1 chain with R18K, I26L, A28V, S33T, Y45F, I129V, E131D
modifications: 10_4H4
notes: GAT polypeptide
B3: SEQ ID NO: 371: GAT polypeptide (protein)
chain: MIEVNPINAEDTYEIRHRILRPNQPLEACMYETDLLGGTSHLGGYYRGKLISIASFHNAEHSELDGQKQYQLRGMATLEGYREQKAGSTLIRHAEELLRKKGADLLWCNARTSVSGYYEKLGFSEQGEVYDIPPIGPHISMYKKLT
modifications: 4B_18F11
notes: GAT polypeptide
B4: SEQ ID NO: 364: GAT polypeptide (protein)
chain: MIEVKPINAEDTYEIRHRILRPNQPLEACMYETDLLGGTFHLGGYYQDRLISIASFHQAEHSELEGQKQYQLRGMATLEGYREQKAGSTLIRYAEELLRKKGADLLWCNARISASGYYEKLGFSEQGEVYDIPPIGPHILMYKKLT
modifications: 3C_9H8
notes: GAT polypeptide
B5: SEQ ID NO: 300: GAT polypeptide (protein)
chain: MIEVKPINAEDTYEIRHRILRPNQPLEACMYETDSLGGTFHLGGYYRGKLISIASFNQAEHPELEGQKQYQLRGMATLEGYREQKAGSTLIRHAEELLRKKGADLLWCNARTSASGYYKKLGFSEQGEVYDTPPVGPHILMYKKLT
modifications: 13_6D10
notes: GAT polypeptide
B6: SEQ ID NO: 268: GAT polypeptide (protein)
chain: B5 chain with S35L, G37R, T39A, N57H, P62S
modifications: CHIMERA
notes: GAT polypeptide
B7: SEQ ID NO: 380: GAT polypeptide (protein)
chain: B4 chain with T39A, D48G, R49K, E60V, Y93H, I112T, A114V, E119K, E128G
modifications: 4H1
notes: GAT polypeptide
B8: SEQ ID NO: 381: GAT polypeptide (protein)
chain: B5 chain with S35L, N57H, P62S, Q67H, G80E, E128G, T132I
modifications: 6_14D10
notes: GAT polypeptide
B9: SEQ ID NO: 384: GAT polypeptide (protein)
chain: B5 chain with S35L, N57H, E60V, P62S, E128G, T132I
modifications: 6_16F5
notes: GAT polypeptide
B10: SEQ ID NO: 368: GAT polypeptide (protein)
chain: B5 chain with S35L, N57H, P62S, E128G, T132I, V135I, H138Y
modifications: 4B_13G10
notes: GAT polypeptide
B11: SEQ ID NO: 365: GAT polypeptide (protein)
chain: B5 chain with S35L, N57H, K119E, T132I, V135I
modifications: 4A_1B11
notes: GAT polypeptide
B12: SEQ ID NO: 370: GAT polypeptide (protein)
chain: B5 chain with M30K, S35L, N57H, G80E, K119E, T132I, V135I
modifications: 4B_17A1
notes: GAT polypeptide
B13: SEQ ID NO: 358: GAT polypeptide (protein)
chain: B5 chain with S35L, N57H, P62S, E128G, T132I, V135I
modifications: 3B_10G7
notes: GAT polypeptide
B14: SEQ ID NO: 372: GAT polypeptide (protein)
chain: B5 chain with M30K, S35L, N57H, E128G, T132I, V135I, T146A
modifications: 4B_19C8
notes: GAT polypeptide
B15: SEQ ID NO: 374: GAT polypeptide (protein)
chain: B4 chain with Q47R, D48G, R49K, G80E, Y93H, E119K, E128G
modifications: 4B_21C6
notes: GAT polypeptide
B16: SEQ ID NO: 366: GAT polypeptide (protein)
chain: B5 chain with M30K, S35L, N57H, P62S, G80E, T132I, V135I
modifications: 4A_1C2
notes: GAT polypeptide
B17: SEQ ID NO: 377: GAT polypeptide (protein)
chain: B5 chain with M30K, S35L, N57H, P62S, Q126H, T132I, V135I
modifications: 4B_6D8
notes: GAT polypeptide
B18: SEQ ID NO: 363: GAT polypeptide (protein)
chain: B4 chain with Q47R, D48G, R49K, E83G, Y93H, I112T
modifications: 3C_12H10
notes: GAT polypeptide
B19: SEQ ID NO: 357: GAT polypeptide (protein)
chain: B5 chain with K5R, S35L, N57H, P62S, V129A, T132I, V135I
modifications: 3B_10C4
notes: GAT polypeptide
B20: SEQ ID NO: 362: GAT polypeptide (protein)
chain: B5 chain with S35L, N57H, P62S, T112I, E128G, T132I
modifications: 3C_10H3
notes: GAT polypeptide
B21: SEQ ID NO: 382: GAT polypeptide (protein)
chain: B5 chain with M30K, S35L, N57H, P62S, T132I
modifications: 6_15G7
notes: GAT polypeptide
B22: SEQ ID NO: 376: GAT polypeptide (protein)
chain: B5 chain with V4A, M30K, S35L, N57H, P62S, T132I, V135I
modifications: 4B_2H8
notes: GAT polypeptide
B23: SEQ ID NO: 367: GAT polypeptide (protein)
chain: B4 chain with M30K, Q47R, D48G, R49K, S62P, G80E, Y93H
modifications: 4B_13E1
notes: GAT polypeptide
B24: SEQ ID NO: 383: GAT polypeptide (protein)
chain: B5 chain with M30K, S35L, N57H, P62S, E128G, T132I
modifications: 6_16A5
notes: GAT polypeptide
B25: SEQ ID NO: 373: GAT polypeptide (protein)
chain: B5 chain with M30K, S35L, T39A, N57H, A59S, Q84L, T112I, T132I, V135I
modifications: 4B_1G4
notes: GAT polypeptide
B26: SEQ ID NO: 379: GAT polypeptide (protein)
chain: B5 chain with S35L, G37R, T39A, N57H, K119E, T132I, V135I
modifications: 4C_8C9
notes: GAT polypeptide
B27: SEQ ID NO: 369: GAT polypeptide (protein)
chain: B5 chain with M30K, S35L, N57H, P62S, E128G, T132I, V135I
modifications: 4B_16E1
notes: GAT polypeptide
B28: SEQ ID NO: 361: GAT polypeptide (protein)
chain: B4 chain with Q47R, D48G, R49K, Y93H, I112T, E125K
modifications: 3B_2E5
notes: GAT polypeptide
B29: SEQ ID NO: 267: GAT polypeptide (protein)
chain: B5 chain with M30K, S35L, G37R, T39A, I51V, N57H, E96A, V135A
modifications: 14_2F11
notes: GAT polypeptide
B30: SEQ ID NO: 375: GAT polypeptide (protein)
chain: B5 chain with S35L, N57H, P62S, E128G, D131G, T132I, V135I
modifications: 4B_2H7
notes: GAT polypeptide
B31: SEQ ID NO: 359: GAT polypeptide (protein)
chain: B5 chain with S35L, N57H, P62S, T132I, V135I
modifications: 3B_12B1
notes: GAT polypeptide
B32: SEQ ID NO: 378: GAT polypeptide (protein)
chain: B5 chain with S35L, N57H, P62S, A114V, T132I, V135I
modifications: 4B_7E8
notes: GAT polypeptide
B33: SEQ ID NO: 360: GAT polypeptide (protein)
chain: B4 chain with T39A, Q47R, D48G, R49K, Q58P, Y93H
modifications: 3B_12D10
notes: GAT polypeptide

assay: Standard protocol for determination of kcat and KM (continuous spectrophotometric assay, Acetyl CoA hydrolysis at 235 nm); type: biochemical; settings: purified protein; about 23° C.; 20 mM HEPES pH 6.8, 10% ethylene glycol, 0.2 mM acetyl CoA
Description: KM was calculated from the initial reaction rates obtained from concentrations of glyphosate ranging from 0.125 to 10 mM, using the Lineweaver-Burke transformation of the Michaelis-Menten equation. kcat/KM was determined by dividing the value determined for kcat by the value determined for KM.
Using this methodology, kinetic parameters for a number of GAT polypeptides exemplified herein were determined. For example, the kcat, KM and kcat/KM for the GAT polypeptide corresponding to SEQ ID NO:445 have been determined to be 322 min^−1, 0.5 mM and 660 mM^−1 min^−1, respectively, using the assay conditions described above. The kcat, KM and kcat/KM for the GAT polypeptide corresponding to SEQ ID NO:457 have been determined to be 118 min^−1, 0.1 mM and 1184 mM^−1 min^−1, respectively, using the assay conditions described above. The kcat, KM and kcat/KM for the GAT polypeptide corresponding to SEQ ID NO:300 have been determined to be 296 min^−1, 0.65 mM and 456 mM^−1 min^−1, respectively, using the assay conditions described above. One of skill in the art can use these numbers to confirm that a GAT activity assay is generating kinetic parameters for a GAT suitable for comparison with the values given herein. For example, the conditions used to compare the activity of GATs should yield the same kinetic constants for SEQ ID NO: 300, 445 and 457 (within normal experimental variance) as those reported herein, when the conditions are used to compare a test GAT with the GAT polypeptides exemplified herein. Kinetic parameters for a number of GAT polypeptide variants were determined according to this methodology and are provided in Table 3.

Row | Molecule | Kcat [s⁻¹]
1 | B1 | 5.37
2 | B2 | 1.9727
3 | B3 | 0.243
4 | B4 | 0.195
5 | B5 | 4.942
6 | B6 | 2.59
7 | B7 | 0.0217
8 | B8 | 0.703
9 | B9 | 0.587
10 | B10 | 0.582
11 | B11 | 0.387
12 | B12 | 0.318
13 | B13 | 0.327
14 | B14 | 0.265
15 | B15 | 0.197
16 | B16 | 0.34
17 | B17 | 0.378

Row | Molecule | Kcat [s⁻¹]
18 | B18 | 0.152
19 | B19 | 0.413
20 | B20 | 0.565
21 | B21 | 0.807
22 | B22 | 0.638
23 | B23 | 0.62
24 | B24 | 0.73
25 | B25 | 0.0617
26 | B26 | 0.15
27 | B27 | 0.283
28 | B28 | 0.273
29 | B29 | 2.282
30 | B30 | 0.45
31 | B31 | 0.38
32 | B32 | 0.342
33 | B33 | 0.09

same assay, conditions: purified protein; about 23° C.; 20 mM HEPES pH 6.8, 10% ethylene glycol, 0.2 mM acetyl CoA; listed as SEQ ID NO:300

Row | Molecule | Kcat [s⁻¹]
34 | B5 | 4.93

same assay, conditions: purified protein; about 23° C.; 20 mM HEPES pH 6.8, 10% ethylene glycol, 0.2 mM acetyl CoA; listed as SEQ ID NO:457

Row | Molecule | Kcat [s⁻¹]
35 | B2 | 1.97

same assay, conditions: purified protein; about 23° C.; pH 6.8; 0.2 mM acetyl CoA; glyphosate 0.125 to 10 mM

Row | Molecule | Km [µM]
36 | B1 | 500
37 | B2 | 100
38 | B3 | 1700
39 | B4 | 1000
40 | B5 | 650
41 | B6 | 1300
42 | B7 | 1400
43 | B8 | 1500
44 | B9 | 1000
45 | B10 | 7600
46 | B11 | 1600
47 | B12 | 1100
48 | B13 | 1000
49 | B14 | 1200
50 | B15 | 800
51 | B16 | 1200
52 | B17 | 1500

Row | Molecule | Km [µM]
53 | B18 | 1200
54 | B19 | 1600
55 | B20 | 1100
56 | B21 | 1300
57 | B22 | 1200
58 | B23 | 2000
59 | B24 | 1100
60 | B25 | 1000
61 | B26 | 600
62 | B27 | 1000
63 | B28 | 1300
64 | B29 | 1700
65 | B30 | 6200
66 | B31 | 1200
67 | B32 | 1200
68 | B33 | 900
